Test results as given in the supplement of paper PMC10567573.

Assay: protein stability index of a GFP-peptide fusion (GPS, HEK-293T) (PSI 1-6); higher = more stable
Settings: c terminus: native
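Note: lentivirally expressed fusion library, cells FACS-sorted into six equal-sized GFP/DsRed ratio bins, PSI computed from sequencing read fractions per bin weighted by bin number.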

## CQPISFSGFGAEDDDLGGLGLGPI [POLD2 addI]
parent: NP_006221.1
  protein stability index: 2.66

## EQRNSRWNTVLRAVKAKTHHLEPI [TRPA1 addI]
parent: NP_015628.1
  protein stability index: 4.42

## DGWIRVSSDNVADLHEKYSGSTPI [PSMB5 addI]
parent: NP_002788.1
  protein stability index: 4.5

## LPALFTDLYSQEITAEEAREALPI [SNF8 addI]
parent: NP_009172.2
  protein stability index: 3.3
